Results from patent US20240116985A1 (published 2024).
Starred links: 1 amine or outer side, 2 acyl side, 3 side chain; linkers in the order of their positions; H or OH if unused. Positions of bridges follow the written chain, without caps; N, C: chain ends. Non-standard residues stand in square brackets, D forms with d. Primed or numbered codes have the meaning given here. *: point of attachment. PyrS2″ = (S)-3-amino-1-((pent-4-en-1-yloxy)carbonyl)pyrrolidine-3-carboxylic acid (stapling residue), C=CCCCOC(=O)N1CC[C@@](N[*:1])(C(=O)[*:2])C1; B5(4) = 2,2-bis(4-pentenyl)glycine = 2-amino-2-(pent-4-en-1-yl)hept-6-enoic acid (stitching residue), C=CCCCC(CCCC=C)(N[*:1])C(=O)[*:2]; B5(5) = 2,2-bis(4-pentenyl)glycine, 2-amino-2-(pent-4-en-1-yl)hept-6-enoic acid (stitching residue), C=CCCCC(CCCC=C)(N[*:1])C(=O)[*:2]; TfeGA = (S)-2-amino-3-((carboxymethyl)(2,2,2-trifluoroethyl)amino)propanoic acid, O=C([C@H](CN(CC(=O)[*:3])CC(F)(F)F)N[*:1])[*:2]; PyrS2 = (S)-3-amino-1-((pent-4-en-1-yloxy)carbonyl)pyrrolidine-3-carboxylic acid, C=CCCCOC(=O)N1CC[C@@](N[*:1])(C(=O)[*:2])C1; B5 = 2-amino-2-(pent-4-en-1-yl)hept-6-enoic acid, C=CCCCC(CCCC=C)(N[*:1])C(=O)[*:2]; Phe(3-CF3) = N[C@@H](Cc1cccc(C(F)(F)F)c1)C(=O)O; Phe(2-Cl) = N[C@@H](Cc1ccccc1Cl)C(=O)O; Bta = N[C@@H](Cc1csc2ccccc12)C(=O)O; αAllylPro = C=CC[C@@]1(C(=O)O)CCCN1; tBuAla = CC(C)(C)C[C@H](N)C(=O)O; 3Thi = N[C@@H](Cc1ccsc1)C(=O)O; S8 = C=CCCCCCC[C@](C)(N)C(=O)O; NH(CH2)6NH2 = NCCCCCCN*; Alaol = C[C@@H](CO)N*; Aib = CC(C)(N)C(=O)O

T1: full-length beta-Catenin (Uniprot ID P35222) (Homo sapiens (Human), UniProt P35222 2-781)
T1 construct: The AlphaScreen assay used a Histidine (Nickel Chelate) detection kit, so a His tag is likely, but no tag is described; also called B-Catenin; bCat
T1 sequence: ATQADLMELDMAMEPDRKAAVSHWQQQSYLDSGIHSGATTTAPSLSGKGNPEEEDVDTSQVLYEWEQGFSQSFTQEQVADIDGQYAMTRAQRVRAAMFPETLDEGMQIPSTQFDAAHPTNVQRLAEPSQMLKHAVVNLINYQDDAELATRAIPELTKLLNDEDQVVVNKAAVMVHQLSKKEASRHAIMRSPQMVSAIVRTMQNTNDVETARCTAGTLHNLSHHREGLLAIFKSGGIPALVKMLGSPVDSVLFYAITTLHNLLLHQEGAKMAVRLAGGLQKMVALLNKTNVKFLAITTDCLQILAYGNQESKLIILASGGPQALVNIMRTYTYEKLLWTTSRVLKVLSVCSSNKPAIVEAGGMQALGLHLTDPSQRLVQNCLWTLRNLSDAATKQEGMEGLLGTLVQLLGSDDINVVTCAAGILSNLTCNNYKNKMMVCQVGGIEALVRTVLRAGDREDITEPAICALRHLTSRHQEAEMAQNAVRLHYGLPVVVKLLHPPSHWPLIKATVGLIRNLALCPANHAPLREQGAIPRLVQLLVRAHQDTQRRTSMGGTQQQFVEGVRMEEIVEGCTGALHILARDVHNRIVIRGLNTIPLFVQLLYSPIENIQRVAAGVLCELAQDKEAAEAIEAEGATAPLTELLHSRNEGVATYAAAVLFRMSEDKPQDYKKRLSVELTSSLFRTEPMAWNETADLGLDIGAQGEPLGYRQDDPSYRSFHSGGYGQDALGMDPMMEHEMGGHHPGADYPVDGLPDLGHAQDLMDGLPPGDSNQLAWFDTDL

T2: B-cat-Halo (beta-catenin HaloTag NanoBRET construct expressed in HEK293 cells) (UniProt P35222 1-781)
T2 sequence (looked up): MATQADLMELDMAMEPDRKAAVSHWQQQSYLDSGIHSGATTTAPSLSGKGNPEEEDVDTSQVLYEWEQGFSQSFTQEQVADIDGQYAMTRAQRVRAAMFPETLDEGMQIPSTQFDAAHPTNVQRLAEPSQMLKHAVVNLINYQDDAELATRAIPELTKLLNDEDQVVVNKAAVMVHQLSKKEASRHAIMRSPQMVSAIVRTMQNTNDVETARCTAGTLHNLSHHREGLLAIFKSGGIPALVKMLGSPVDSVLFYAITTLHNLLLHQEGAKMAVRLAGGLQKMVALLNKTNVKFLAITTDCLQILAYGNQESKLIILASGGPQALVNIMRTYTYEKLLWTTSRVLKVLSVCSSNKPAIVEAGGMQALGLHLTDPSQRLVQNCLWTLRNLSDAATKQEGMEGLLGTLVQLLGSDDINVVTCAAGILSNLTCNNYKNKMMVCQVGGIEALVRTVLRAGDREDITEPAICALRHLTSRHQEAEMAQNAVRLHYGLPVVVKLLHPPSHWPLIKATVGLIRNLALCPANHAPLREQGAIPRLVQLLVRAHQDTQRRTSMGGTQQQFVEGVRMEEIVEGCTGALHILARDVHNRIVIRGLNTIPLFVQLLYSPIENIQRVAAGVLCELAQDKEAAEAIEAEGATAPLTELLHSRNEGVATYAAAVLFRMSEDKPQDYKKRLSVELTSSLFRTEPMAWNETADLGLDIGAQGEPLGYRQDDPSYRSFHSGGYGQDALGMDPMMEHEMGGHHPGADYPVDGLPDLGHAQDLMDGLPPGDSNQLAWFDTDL

T3: beta-catenin in DLD1 TCF/LEF reporter cells (UniProt P35222 1-781)
T3 sequence (looked up): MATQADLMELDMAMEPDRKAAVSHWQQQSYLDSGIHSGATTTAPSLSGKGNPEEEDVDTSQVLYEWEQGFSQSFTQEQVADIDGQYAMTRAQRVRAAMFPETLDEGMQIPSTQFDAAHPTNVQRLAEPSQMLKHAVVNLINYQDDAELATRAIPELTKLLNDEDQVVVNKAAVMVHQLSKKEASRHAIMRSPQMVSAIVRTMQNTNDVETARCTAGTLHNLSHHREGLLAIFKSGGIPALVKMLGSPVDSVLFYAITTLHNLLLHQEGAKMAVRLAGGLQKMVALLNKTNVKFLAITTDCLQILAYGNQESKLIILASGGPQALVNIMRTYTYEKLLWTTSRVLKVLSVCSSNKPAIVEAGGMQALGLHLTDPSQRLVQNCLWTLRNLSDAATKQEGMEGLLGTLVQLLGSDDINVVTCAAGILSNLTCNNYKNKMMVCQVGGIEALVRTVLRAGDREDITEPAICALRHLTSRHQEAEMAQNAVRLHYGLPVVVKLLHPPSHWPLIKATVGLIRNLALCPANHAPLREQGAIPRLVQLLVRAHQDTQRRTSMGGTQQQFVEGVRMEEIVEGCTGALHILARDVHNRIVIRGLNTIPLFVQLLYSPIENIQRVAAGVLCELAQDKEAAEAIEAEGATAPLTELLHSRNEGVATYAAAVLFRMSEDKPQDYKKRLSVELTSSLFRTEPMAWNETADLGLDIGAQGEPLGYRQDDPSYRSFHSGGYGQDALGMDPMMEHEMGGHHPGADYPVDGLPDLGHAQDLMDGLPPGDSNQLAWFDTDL

T4: B-cat-Halo (UniProt P35222 1-781)
T4 sequence (looked up): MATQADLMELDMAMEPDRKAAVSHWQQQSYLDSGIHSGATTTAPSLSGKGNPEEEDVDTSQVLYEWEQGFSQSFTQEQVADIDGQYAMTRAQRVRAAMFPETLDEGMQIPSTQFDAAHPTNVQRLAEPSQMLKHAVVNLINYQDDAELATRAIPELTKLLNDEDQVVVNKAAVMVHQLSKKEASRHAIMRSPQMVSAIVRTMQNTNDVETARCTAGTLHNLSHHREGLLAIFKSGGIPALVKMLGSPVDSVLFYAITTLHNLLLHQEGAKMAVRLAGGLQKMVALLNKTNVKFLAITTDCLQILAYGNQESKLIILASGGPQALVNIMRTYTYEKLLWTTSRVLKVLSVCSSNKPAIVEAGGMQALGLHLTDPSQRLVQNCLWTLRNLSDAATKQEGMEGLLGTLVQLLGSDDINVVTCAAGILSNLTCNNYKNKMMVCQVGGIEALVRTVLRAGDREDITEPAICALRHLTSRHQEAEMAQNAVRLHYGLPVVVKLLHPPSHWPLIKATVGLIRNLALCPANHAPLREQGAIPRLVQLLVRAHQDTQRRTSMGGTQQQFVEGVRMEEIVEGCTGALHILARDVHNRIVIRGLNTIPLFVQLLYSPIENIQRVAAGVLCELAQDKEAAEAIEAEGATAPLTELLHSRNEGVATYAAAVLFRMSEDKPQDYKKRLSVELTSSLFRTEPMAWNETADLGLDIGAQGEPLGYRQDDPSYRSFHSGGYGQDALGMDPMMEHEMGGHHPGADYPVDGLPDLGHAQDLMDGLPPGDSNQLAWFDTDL

T5: beta-catenin in DLD1 TCF/LEF luciferase reporter cells (UniProt P35222 1-781)
T5 sequence (looked up): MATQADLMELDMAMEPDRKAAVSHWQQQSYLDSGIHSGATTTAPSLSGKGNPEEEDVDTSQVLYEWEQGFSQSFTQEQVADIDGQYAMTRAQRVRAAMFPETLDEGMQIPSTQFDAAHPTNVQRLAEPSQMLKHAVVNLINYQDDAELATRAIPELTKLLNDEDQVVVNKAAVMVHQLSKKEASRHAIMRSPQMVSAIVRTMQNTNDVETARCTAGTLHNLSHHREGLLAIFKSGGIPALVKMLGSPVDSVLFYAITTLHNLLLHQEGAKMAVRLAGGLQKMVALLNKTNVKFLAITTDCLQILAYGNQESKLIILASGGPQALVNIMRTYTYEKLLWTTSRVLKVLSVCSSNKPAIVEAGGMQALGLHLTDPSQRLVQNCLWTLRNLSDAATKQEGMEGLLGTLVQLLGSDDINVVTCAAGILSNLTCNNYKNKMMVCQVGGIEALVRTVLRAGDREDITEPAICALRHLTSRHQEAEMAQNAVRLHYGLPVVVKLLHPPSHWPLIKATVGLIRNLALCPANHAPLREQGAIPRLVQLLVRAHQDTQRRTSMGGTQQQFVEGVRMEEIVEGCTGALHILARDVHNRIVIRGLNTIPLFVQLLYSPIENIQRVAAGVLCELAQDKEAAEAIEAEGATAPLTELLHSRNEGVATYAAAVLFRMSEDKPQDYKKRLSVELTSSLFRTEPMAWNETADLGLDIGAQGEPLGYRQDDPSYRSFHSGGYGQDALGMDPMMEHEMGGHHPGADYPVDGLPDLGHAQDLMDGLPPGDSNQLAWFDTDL


What was measured:
[1] = target: T1, full-length beta-Catenin (Uniprot ID …); assay: AlphaScreen competition: full-length beta-catenin + biotin-TCF4(10-53) probe, peptide titrated
Procedure, shortened: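 Titrated peptide was preincubated 15 minutes at 20° C, then donor and acceptor beads were added for 60 minutes at 20° C protected from light. Reads were done in duplicate, and data were fitted to a 1:1 binding model with Hill slope; concentrations are final.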

[2] = target: T1, full-length beta-Catenin (Uniprot ID …); assay: fluorescence polarization competition: full-length beta-catenin + 5FAM-TCF4(10-53) probe, peptide titrated
Procedure, shortened: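 Incubate 60 minutes at 20° C. away from light, then read polarization in duplicate. Fit to 1:1 binding with hill slope.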

[3] = target: T2, B-cat-Halo (beta-catenin HaloTag …); assay: cell-based or functional assay
[4] = target: T3, beta-catenin in DLD1 TCF/LEF reporter …; assay: cell-based or functional assay
B-cat-Halo = target: T4, B-cat-Halo; assay: cell-based or functional assay
[5] = target: T5, beta-catenin in DLD1 TCF/LEF luciferase …; assay: cell-based or functional assay

| Binder | EC50 [1] [µM] | EC50 [2] [µM] | NanoBRET Abs IC50 [3] [µM] | other results |
| --- | --- | --- | --- | --- |
| Ac-[αAllylPro]DA[B5]DDAAFV[S8][Phe(3-CF3)]WQ-NH2 (staple 1-4, 4-11, Stapled peptide composition; also called Ac-PL3-Asp-Ala-B5-Asp-Asp-Ala-Ala-Phe-Val-S8-3F3MeF-Trp-Gln-NH2) [I-250] | 1.2 | 5 | – | – |
| XDXXDDAAFNXXXQ (not fully specified; AzAc-PL3-Asp-Npg-B5-Asp-Asp-Ala-Ala-Phe-Asn-S8-3Thi-BztA-Gln-NH2; stapled PL3-B5 and B5-S8 (olefin metathesis)) [I-1053] | – | – | > 20 | – |
| Ac-[αAllylPro]D[tBuAla][B5(4)]D[TfeGA]AAFT[PyrS2][Phe(2-Cl)][Bta]Q-{NH(CH2)6NH2} (staple 1-4, 4-11) [I-1061] | – | – | 10.3 | – |
| Ac-[αAllylPro]DA[B5]DDAAFV[S8][Phe(3-CF3)]WQ-NH2 (staple 1-4, 4-11, Stapled peptide composition; also called Ac-PL3-Asp-Ala-B5-Asp-Asp-Ala-Ala-Phe-Val-S8-3F3MeF-Trp-Gln-NH2) [I-251] | 1.2 | 5 | – | – |
| Ac-[αAllylPro]D[tBuAla][B5(4)]D[TfeGA]AAFT[PyrS2″][Phe(2-Cl)][Bta]-Alaol (staple 1-4, 4-11) [I-1242] | – | – | – | DLD1 reporter assay Abs IC50 [4]: 4.8 µM; NanoBRET Abs IC50 (B-cat-Halo): > 20 µM |
| Ac-[αAllylPro]D[tBuAla][B5(5)]NT[Aib]AFN[PyrS2″][3Thi][Bta]T-NH2 (staple 1-4, 4-11) [I-2416] | – | – | – | DLD1 4% Abs IC50 [5]: > 20 µM |
